In the assay the target is GST-HAUSP (human, UniProt Q93009 1-1102). The experiment in a line: pull-down.
Sequence of GST-HAUSP (Q93009 whole entry): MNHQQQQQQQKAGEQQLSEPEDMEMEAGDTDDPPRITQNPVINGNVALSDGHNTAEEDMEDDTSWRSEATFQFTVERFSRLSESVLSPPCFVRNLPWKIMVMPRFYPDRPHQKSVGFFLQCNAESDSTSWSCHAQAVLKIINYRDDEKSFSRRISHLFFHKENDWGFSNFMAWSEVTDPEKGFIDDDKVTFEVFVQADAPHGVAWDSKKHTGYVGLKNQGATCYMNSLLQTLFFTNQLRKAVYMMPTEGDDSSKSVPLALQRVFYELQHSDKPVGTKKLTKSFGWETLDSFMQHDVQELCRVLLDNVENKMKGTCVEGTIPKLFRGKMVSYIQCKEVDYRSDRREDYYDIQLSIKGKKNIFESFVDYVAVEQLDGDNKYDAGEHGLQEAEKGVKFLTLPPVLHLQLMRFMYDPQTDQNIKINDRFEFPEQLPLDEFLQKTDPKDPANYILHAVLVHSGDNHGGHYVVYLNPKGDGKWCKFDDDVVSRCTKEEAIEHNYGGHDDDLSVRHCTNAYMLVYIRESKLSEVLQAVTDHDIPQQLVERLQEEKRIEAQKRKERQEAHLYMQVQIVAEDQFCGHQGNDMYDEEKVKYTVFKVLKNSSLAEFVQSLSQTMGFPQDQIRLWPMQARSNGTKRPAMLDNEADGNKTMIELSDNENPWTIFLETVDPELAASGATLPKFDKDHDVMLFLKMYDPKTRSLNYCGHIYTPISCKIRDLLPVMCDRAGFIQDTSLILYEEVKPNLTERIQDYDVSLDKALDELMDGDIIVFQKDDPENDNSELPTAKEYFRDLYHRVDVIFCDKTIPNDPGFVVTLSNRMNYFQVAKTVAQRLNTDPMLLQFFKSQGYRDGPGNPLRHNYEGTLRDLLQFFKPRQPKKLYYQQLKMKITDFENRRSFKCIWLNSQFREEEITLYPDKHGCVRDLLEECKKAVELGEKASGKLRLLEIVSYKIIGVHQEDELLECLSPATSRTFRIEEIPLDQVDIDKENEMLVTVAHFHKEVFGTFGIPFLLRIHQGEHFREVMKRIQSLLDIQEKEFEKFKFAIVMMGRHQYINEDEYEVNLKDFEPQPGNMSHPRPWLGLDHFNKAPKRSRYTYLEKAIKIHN

B1: Myc/His-Rb (Rb in pcDNA3.1-Myc/His B(-)) (natural protein, human, UniProt P06400 1-928, looked up)
chain: MPPKTPRKTAATAAAAAAEPPAPPPPPPPEEDPEQDSGPEDLPLVRLEFEETEEPDFTALCQKLKIPDHVRERAWLTWEKVSSVDGVLGGYIQKKKELWGICIFIAAVDLDEMSFTFTELQKNIEISVHKFFNLLKEIDTSTKVDNAMSRLLKKYDVLFALFSKLERTCELIYLTQPSSSISTEINSALVLKVSWITFLLAKGEVLQMEDDLVISFQLMLCVLDYFIKLSPPMLLKEPYKTAVIPINGSPRTPRRGQNRSARIAKQLENDTRIIEVLCKEHECNIDEVKNVYFKNFIPFMNSLGLVTSNGLPEVENLSKRYEEIYLKNKDLDARLFLDHDKTLQTDSIDSFETQRTPRKSNLDEEVNVIPPHTPVRTVMNTIQQLMMILNSASDQPSENLISYFNNCTVNPKESILKRVKDIGYIFKEKFAKAVGQGCVEIGSQRYKLGVRLYYRVMESMLKSEEERLSIQNFSKLLNDNIFHMSLLACALEVVMATYSRSTSQNLDSGTDLSFPWILNVLNLKAFDFYKVIESFIKAEGNLTREMIKHLERCEHRIMESLAWLSDSPLFDLIKQSKDREGPTDHLESACPLNLPLQNNHTAADMYLSPVRSPKKKGSTTRVNSTANAETQATSAFQTQKPLKSTSLSLFYKKVYRLAYLRLNTLCERLLSEHPELEHIIWTLFQHTLQNEYELMRDRHLDQIMMCSMYGICKVKNIDLKFKIIVTAYKDLPHAVQETFKRVLIKEEEYDSIIVFYNSVFMQRLKTNILQYASTRPPTLSPIPHIPRSPYKFPSSPLRIPGGNIYISPLKSPYKISEGLPTPTKMTPRSRILVSIGESFGTSEKFQKINQMVCNSDRVLKRSAEGSNPPKPLKKLRFDIEGSDEADGSKHLPGESKFQQKLAEMTSTRTRMQKQKMNDSMDTSNKEEK
For the molecule B1, the binding result was “binds”.
